# According to the supplement of paper PMC5998384:
# What was measured:
# HeLa Kyoto [1] = assay: melting temperature (median over replicates), in situ; higher = more thermally stable
# HeLa Kyoto [2] = assay: solubility in G1/S (NP-40 vs SDS abundance) (log2 ratio); higher = more soluble; conditions: cell cycle stage: G1/S
# HeLa Kyoto [3] = assay: solubility change mitosis vs G1/S (difference of NP-40 vs SDS log2 ratios) (log2 ratio difference); higher = more soluble in mitosis
# 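Throughout, for melting temperature (median over replicates), in situ: HeLa Kyoto cells synchronized by double thymidine or nocodazole block, proteins quantified by TMT10plex mass spectrometry, three independent biological replicates.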
# 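Throughout, for solubility change mitosis vs G1/S (difference of NP-40 vs SDS log2 ratios): synchronized HeLa Kyoto cells (double thymidine block for G1/S, nocodazole release for mitosis), protein amounts in NP-40 versus SDS lysates quantified by mass spectrometry, three biological replicates.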
# 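Throughout, for solubility in G1/S (NP-40 vs SDS abundance): HeLa Kyoto cells arrested at G1/S by double thymidine block, proteins quantified by TMT10plex mass spectrometry in mild NP-40 versus SDS extracts, three biological replicates.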
# Chain of LLPH (chain, as listed by the source): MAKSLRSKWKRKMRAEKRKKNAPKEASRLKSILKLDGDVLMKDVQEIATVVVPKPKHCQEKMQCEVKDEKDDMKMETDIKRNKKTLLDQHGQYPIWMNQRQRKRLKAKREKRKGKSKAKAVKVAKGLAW
# Chain of UBE2D1 (chain, as listed by the source): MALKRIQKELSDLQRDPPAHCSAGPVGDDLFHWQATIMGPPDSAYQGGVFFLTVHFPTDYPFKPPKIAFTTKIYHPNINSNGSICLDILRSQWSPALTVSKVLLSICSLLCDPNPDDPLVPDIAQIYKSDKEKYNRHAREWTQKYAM
# Chain of TFAP2A (chain, as listed by the source): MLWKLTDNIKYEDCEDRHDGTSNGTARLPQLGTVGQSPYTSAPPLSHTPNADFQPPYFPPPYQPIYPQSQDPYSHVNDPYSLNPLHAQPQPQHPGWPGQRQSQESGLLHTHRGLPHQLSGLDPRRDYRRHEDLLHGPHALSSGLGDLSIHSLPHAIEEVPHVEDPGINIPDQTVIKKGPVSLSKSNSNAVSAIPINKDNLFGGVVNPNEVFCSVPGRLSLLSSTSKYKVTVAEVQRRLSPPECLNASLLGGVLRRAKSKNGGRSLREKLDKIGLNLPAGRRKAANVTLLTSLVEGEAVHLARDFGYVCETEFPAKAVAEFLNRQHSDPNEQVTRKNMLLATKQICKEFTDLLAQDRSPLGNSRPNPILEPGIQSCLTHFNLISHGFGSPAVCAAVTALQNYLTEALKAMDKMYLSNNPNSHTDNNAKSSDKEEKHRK
Substance,melting temperature (HeLa Kyoto [1]; cell cycle stage: G1/S),melting temperature (HeLa Kyoto [1]; cell cycle stage: mitosis),solubility in G1/S (log2) (HeLa Kyoto [2]),solubility change mitosis (log2) (HeLa Kyoto [3])
ARSB,56.3 °C,57.3 °C,0.364,-0.198
CRYBG3,51.3 °C,50.4 °C,-0.18,-0.00814
GTF2H1,50.2 °C,49.1 °C,-0.0948,0.114
KIAA1217,49.8 °C,50.7 °C,0.0766,0.0131
LLPH,58.7 °C,55.8 °C,-1.23,1.03
MAAAAAALSGAGTPPAGGGAGGGGAGGGGSPPGGWAVARLEGREFEYLMKKRSVTIGRNSSQGSVDVSMGHSSFISRRHLEIFTPPGGGGHGGAAPELPPAQPRPDAGGDFYLRCLGKNGVFVDGVFQRRGAPPLQLPRVCTFRFPSTNIKITFTALSSEKREKQEASESPVKAVQPHISPLTINIPDTMAHLISPLPSPTGTISAANSCPSSPRGAGSSGYKVGRVMPSDLNLMADNSQPENEKEASGGDSPKDDSKPPYSYAQLIVQAITMAPDKQLTLNGIYTHITKNYPYYRTADKGWQNSIRHNLSLNRYFIKVPRSQEEPGKGSFWRIDPASESKLIEQAFRKRRPRGVPCFRTPLGPLSSRSAPASPNHAGVLSAHSSGAQTPESLSREGSPAPLEPEPGAAQPKLAVIQEARFAQSAPGSPLSSQPVLITVQRQLPQAIKPVTYTVATPVTTSTSQPPVVQTVHVVHQIPAVSVTSVAGLAPANTYTVSGQAVVTPAAVLAPPKAEAQENGDHREVKVKVEPIPAIGHATLGTASRIIQTAQTTPVQTVTIVQQAPLGQHQLPIKTVTQNGTHVASVPTAVHGQVNNAAASPLHMLATHASASASLPTKRHNGDQPEQPELKRIKTEDGEGIVIALSVDTPPAAVREKGVQN [FOXK2],,50.7 °C,0.267,-0.0189
MAAAATMAAAARELVLRAGTSDMEEEEGPLAGGPGLQEPLQLGELDITSDEFILDEVDVHIQANLEDELVKEALKTGVDLRHYSKQVELELQQIEQKSIRDYIQESENIASLHNQITACDAVLERMEQMLGAFQSDLSSISSEIRTLQEQSGAMNIRLRNRQAVRGKLGELVDGLVVPSALVTAILEAPVTEPRFLEQLQELDAKAAAVREQEARGTAACADVRGVLDRLRVKAVTKIREFILQKIYSFRKPMTNYQIPQTALLKYRFFYQFLLGNERATAKEIRDEYVETLSKIYLSYYRSYLGRLMKVQYEEVAEKDDLMGVEDTAKKGFFSKPSLRSRNTIFTLGTRGSVISPTELEAPILVPHTAQRGEQRYPFEALFRSQHYALLDNSCREYLFICEFFVVSGPAAHDLFHAVMGRTLSMTLKHLDSYLADCYDAIAVFLCIHIVLRFRNIAAKRDVPALDRYWEQVLALLWPRFELILEMNVQSVRSTDPQRLGGLDTRPHYITRRYAEFSSALVSINQTIPNERTMQLLGQLQVEVENFVLRVAAEFSSRKEQLVFLINNYDMMLGVLMERAADDSKEVESFQQLLNARTQEFIEELLSPPFGGLVAFVKEAEALIERGQAERLRGEEARVTQLIRGFGSSWKSSVESLSQDVMRSFTNFRNGTSIIQGALTQLIQLYHRFHRVLSQPQLRALPARAELINIHHLMVELKKHKPNF [VPS52],51.5 °C,50.4 °C,-0.194,-0.138
MAAAEEGCSVGAEADRELEELLESALDDFDKAKPSPAPPSTTTAPDASGPQKRSPGDTAKDALFASQEKFFQELFDSELASQATAEFEKAMKELAEEEPHLVEQFQKLSEAAGRVGSDMTSQQEFTSCLKETLSGLAKNATDLQNSSMSEEELTKAMEGLGMDEGDGEGNILPIMQSIMQNLLSKDVLYPSLKEITEKYPEWLQSHRESLPPEQFEKYQEQHSVMCKICEQFEAETPTDSETTQKARFEMVLDLMQQLQDLGHPPKELAGEMPPGLNFDLDALNLSGPPGASGEQCLIM [G3V3G9],51.1 °C,51.3 °C,-0.172,-0.158
MWSLTASEGESTTAHFFLGAGDEGLGTRGIGMRPEESDSELLEDEEDEVPPEPQIIVGICAMTKKSKSKPMTQILERLCRFDYLTVVILGEDVILNEPVENWPSCHCLISFHSKGFPLDKAVAYSKLRNPFLINDLAMQYYIQDRREVYRILQEEGIDLPRYAVLNRDPARPEECNLIEGEDQVEVNGAVFPKPFVEKPVSAEDHNVYIYYPSSAGGGSQRLFRKIGSRSSVYSPESSVRKTGSYIYEEFMPTDGTDVKVYTVGPDYAHAEARKSPALDGKVERDSEGKEIRYPVMLTAMEKLVARKVCVAFKQTVCGFDLLRANGHSFVCDVNGFSFVKNSMKYYDDCAKILGNTIMRELAPQFQIPWSIPTEAEDIPIVPTTSGTMMELRCVIAIIRHGDRTPKQKMKMEVKHPRFFALFEKHGGYKTGKLKLKRPEQLQEVLDITRLLLAELEKEPGGEIEEKTGKLEQLKSVLEMYGHFSGINRKVQLTYYPHGVKASNEGQDPQRETLAPSLLLVLKWGGELTPAGRVQAEELGRAFRCMYPGGQGDYAGFPGCGLLRLHSTFRHDLKIYASDEGRVQMTAAAFAKGLLALEGELTPILVQMVKSANMNGLLDSDGDSLSSCQHRVKARLHHILQQDAPFGPEDYDQLAPTRSTSLLNSMTIIQNPVKVCDQVFALIENLTHQIRERMQDPRSVDLQLYHSETLELMLQRWSKLERDFRQKSGRYDISKIPDIYDCVKYDVQHNGSLGLQGTAELLRLSKALADVVIPQEYGISREEKLEIAVGFCLPLLRKILLDLQRTHEDESVNKLHPLCYLRYSRGVLSPGRHVRTRLYFTSESHVHSLLSVFRYGGLLDETQDAQWQRALDYLSAISELNYMTQIVIMLYEDNTQDPLSEERFHVELHFSPGVKGVEEEGSAPAGCGFRPASSENEEMKTNQGSMENLCPGKASDEPDRALQTSPQPPEGPGLPRRSPLIRNRKAGSMEVLSETSSSRPGGYRLFSSSRPPTEMKQSGLGSQCTGLFSTTVLGGSSSAPNLQDYARSHGKKLPPASLKHRDELLFVPAVKRFSVSFAKHPTNGFEGCSMVPTIYPLETLHNALSLRQVSEFLSRVCQRHTDAQAQASAALFDSMHSSQASDNPFSPPRTLHSPPLQLQQRSEKPPWYSSGPSSTVSSAGPSSPTTVDGNSQFGFSDQPSLNSHVAEEHQGLGLLQETPGSGAQELSIEGEQELFEPNQSPQVPPMETSQPYEEVSQPCQEVPDISQPCQDISEALSQPCQKVPDISQQCQENHDNGNHTCQEVPHISQPCQKSSQLCQKVSEEVCQLCLENSEEVSQPCQGVSVEVGKLVHKFHVGVGSLVQETLVEVGSPAEEIPEEVIQPYQEFSVEVGRLAQETSAINLLSQGIPEIDKPSQEFPEEIDLQAQEVPEEIN [PPIP5K1],,,-0.000791,-0.212
MWVNPEEVLLANALWITERANPYFILQRRKGHAGDGGGGGGLAGLLVGTLDVVLDSSARVAPYRILYQTPDSLVYWTIACGGSRKEITEHWEWLEQNLLQTLSIFENENDITTFVRGKIQGIIAEYNKINDVKEDDDTEKFKEAIVKFHRLFGMPEEEKLVNYYSCSYWKGKVPRQGWMYLSINHLCFYSFLMGREAKLVIRWVDITQLEKNATLLLPDVIKVSTRSSEHFFSVFLNINETFKLMEQLANIAMRQLLDNEGFEQDRSLPKLKRKSPKKVSALKRDLDARAKSERYRALFRLPKDEKLDGHTDCTLWTPFNKMHILGQMFVSTNYICFTSKEENLCSLIIPLREVTIVEKADSSSVLPSPLSISTRNRMTFLFANLKDRDFLVQRISDFLQQTTSKIYSDKEFAGSYNSSDDEVYSRPSSLVSSSPQRSTSSDADGERQFNLNGNSVPTATQTLMTMYRRRSPEEFNPKLAKEFLKEQAWKIHFAEYGQGICMYRTEKTRELVLKGIPESMRGELWLLLSGAINEKATHPGYYEDLVEKSMGKYNLATEEIERDLHRSLPEHPAFQNEMGIAALRRVLTAYAFRNPNIGYCQAMNIVTSVLLLYAKEEEAFWLLVALCERMLPDYYNTRVVGALVDQGVFEELARDYVPQLYDCMQDLGVISTISLSWFLTLFLSVMPFESAVVVVDCFFYEGIKVIFQLALAVLDANVDKLLNCKDDGEAMTVLGRYLDSVTNKDSTLPPIPHLHSLLSDDVEPYPEVDIFRLIRTSYEKFGTIRADLIEQMRFKQRLKVIQTLEDTTKRNVVRTIVTETSFTIDELEELYALFKAEHLTSCYWGGSSNALDRHDPSLPYLEQYRIDFEQFKGMFALLFPWACGTHSDVLASRLFQLLDENGDSLINFREFVSGLSAACHGDLTEKLKLLYKMHVLPEPSSDQDEPDSAFEATQYFFEDITPECTHVVGLDSRSKQGADDGFVTVSLKPDKGKRANSQENRNYLRLWTPENKSKSKNAKDLPKLNQGQFIELCKTMYNMFSEDPNEQELYHATAAVTSLLLEIGEVGKLFVAQPAKEGGSGGSGPSCHQGIPGVLFPKKGPGQPYVVESVEPLPASLAPDSEEHSLGGQMEDIKLEDSSPRDNGACSSMLISDDDTKDDSSMSSYSVLSAGSHEEDKLHCEDIGEDTVLVRSGQGTAALPRSTSLDRDWAITFEQFLASLLTEPALVKYFDKPVCMMARITSAKNIRMMGKPLTSASDYEISAMSG [TBC1D9],,,-0.4,0.38
MYLK,,,-0.635,0.101
MYRLMSAVTARAAAPGGLASSCGRRGVHQRAGLPPLGHGWVGGLGLGLGLALGVKLAGGLRGAAPAQSPAAPDPEASPLAEPPQEQSLAPWSPQTPAPPCSRCFARAIESSRDLLHRIKDEVGAPGIVVGVSVDGKEVWSEGLGYADVENRVPCKPETVMRIASISKSLTMVALAKLWEAGKLDLDIPVQHYVPEFPEKEYEGEKVSVTTRLLISHLSGIRHYEKDIKKVKEEKAYKALKMMKENVAFEQEKEGKSNEKNDFTKFKTEQENEAKCRNSKPGKKKNDFEQGELYLREKFENSIESLRLFKNDPLFFKPGSQFLYSTFGYTLLAAIVERASGCKYLDYMQKIFHDLDMLTTVQEENEPVIYNRARFYVYNKKKRLVNTPYVDNSYKWAGGGFLSTVGDLLKFGNAMLYGYQVGLFKNSNENLLPGYLKPETMVMMWTPVPNTEMSWDKEGKYAMAWGVVERKQTYGSCRKQRHYASHTGGAVGASSVLLVLPEELDTETINNKVPPRGIIVSIICNMQSVGLNSTALKIALEFDKDRSD [LACTB],,,-2.26,0.376
MYRSGERLLGSHALPAEQRDFLPLETTNNNNNHHQPGAWARRAGSSASSPPSASSSPHPSAAVPAADPADSASGSSNKRKRDNKASGGRAAGGGRADGGGVVYSGTPWKRRNYNQGVVGLHEEISDFYEYMSPRPEEEKMRMEVVNRIESVIKELWPSADVQIFGSFKTGLYLPTSDIDLVVFGKWENLPLWTLEEALRKHKVADEDSVKVLDKATVPIIKLTDSFTEVKVDISFNVQNGVRAADLIKDFTKKYPVLPYLVLVLKQFLLQRDLNEVFTGGIGSYSLFLMAVSFLQLHPREDACIPNTNYGVLLIEFFELYGRHFNYLKTGIRIKDGGSYVAKDEVQKNMLDGYRPSMLYIEDPLQPGNDVGRSSYGAMQVKQAFDYAYVVLSHAVSPIAKYYPNNETESILGRIIRVTDEVATYRDWISKQWGLKNRPEPSCNGPVSSSSATQSSSSDVDSDATPCKTPKQLLCRPSTGNRVGSQDVSLESSQAVGKMQSTQTTNTSNSTNKSQHGSARLFRSSSKGFQGTTQTSHGSLMTNKQHQGKSNNQYYHGKKRKHKRDAPLSDLCR [PAPD5],,,-0.654,0.189
PEAK1,,,-0.569,0.302
PHRF1,,,-0.629,0.566
PPP3R1,,,0.385,-0.104
PTPN6,,,0.166,0.0101
RLF,,,-0.887,0.617
SYNM,,,-0.94,0.752
TET2,,,0.155,-0.257
TFAP2A,,,0.185,0.505
UBE2D1,,,0.473,-0.0476
VPS13B,,,-0.247,-0.0582
